# Results from patent US20100190692A1 (published 2010).
# *1 amine or outer side, *2 acyl side, *3 side chain or, on linkers, in order; H or OH if unused. [ ]: non-standard residue; d: D form. dSer(tBu) = CC(C)(C)OC[C@@H](N[*:1])C(=O)[*:2]; pGlu = O=C1CC[C@@H](C(=O)O)N1; azaGly = NNC(=O)O
# T1: human GnRH receptor (human, UniProt P30968 1-328)
# T1 construct: whole, on cells; Endogenous receptor; also called LHRH receptor; human pituitary GnRH receptor
# T1 sequence (looked up): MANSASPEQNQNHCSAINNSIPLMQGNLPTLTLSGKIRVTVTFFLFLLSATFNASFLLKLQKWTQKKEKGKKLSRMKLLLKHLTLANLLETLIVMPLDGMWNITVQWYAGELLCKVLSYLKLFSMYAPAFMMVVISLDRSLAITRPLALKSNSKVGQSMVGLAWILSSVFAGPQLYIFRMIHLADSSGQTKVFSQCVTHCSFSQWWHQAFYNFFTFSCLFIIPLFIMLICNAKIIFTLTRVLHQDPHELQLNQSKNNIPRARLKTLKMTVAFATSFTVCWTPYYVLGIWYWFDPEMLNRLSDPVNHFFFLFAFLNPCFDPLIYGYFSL
# T2: rat pituitary GnRH receptor (rat, UniProt P30969 1-327)
# T2 construct: whole, on cells; also called Rat pituitaries
# T2 sequence (looked up): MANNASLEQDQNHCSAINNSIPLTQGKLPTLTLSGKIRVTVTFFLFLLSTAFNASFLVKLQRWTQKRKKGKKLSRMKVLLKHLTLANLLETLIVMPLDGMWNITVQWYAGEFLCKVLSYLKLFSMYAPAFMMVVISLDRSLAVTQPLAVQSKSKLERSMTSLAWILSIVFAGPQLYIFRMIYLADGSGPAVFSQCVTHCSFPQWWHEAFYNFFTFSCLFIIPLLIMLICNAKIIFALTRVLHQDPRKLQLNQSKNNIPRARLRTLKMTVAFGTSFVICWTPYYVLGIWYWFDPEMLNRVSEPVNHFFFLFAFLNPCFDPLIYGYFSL
# Legend:
# human GnRH receptor [1] = molecular target: T1, human GnRH receptor; assay: cell-based or functional assay
# human GnRH receptor [2] = molecular target: T1, human GnRH receptor; assay: radioligand displacement curves on BLM melanoma cell membranes
# human GnRH receptor [3] = molecular target: T1, human GnRH receptor; assay: radioligand displacement curves on ME15392 melanoma cell membranes
# [4] = molecular target: T2, rat pituitary GnRH receptor; assay: radioligand displacement curves on rat pituitary membranes (control)
molecule,measurement,setting,value
"Triptorelin (LHRH agonist, Sigma Chemical Co., No. L9761) (peptide)","inhibition of proliferation of MV3 melanoma cells from day 4 on (10^-4, 10^-5, 10^-6 M)",human GnRH receptor [1],15%
"Antide (LHRH antagonist, Sigma Chemical Co., No. A8802) (peptide)",inhibition of proliferation of MV3 melanoma cells at 10^-4 M,human GnRH receptor [1],15%
same,inhibition of proliferation of MV3 melanoma cells at 10^-5 M,human GnRH receptor [1],35%
same,stimulation of growth of MV3 melanoma cells at 10^-6 M,human GnRH receptor [1],40%
Cetrorelix (GnRH antagonist) (peptide),decrease of proliferation of U-87MG cells at 10^-6 M,human GnRH receptor [1],28%
same,inhibition of proliferation of U-87MG cells at 10^-5 M,human GnRH receptor [1],30%
"[pGlu]HWSY[dSer(tBu)]LRP[azaGly]-NH2 (also: ^125I-labelled form used as tracer in binding assay, also called Goserelin) [GnRH agonist LHRH-A (ZOLADEX, [D-Ser(tBu)^6Aza-Gly-LHRH])]",Kd,human GnRH receptor [2],700 to 1100 pM
same,Kd,human GnRH receptor [3],100 to 600 pM
same,Kd,[4],1500 to 2000 pM
